The subject of assay [1] is neutrophils. The assay can be described thus: Annexin-V staining / FACS analysis of neutrophil apoptosis in vitro. It is filed as cell-based, human. As for the experimental part: (§1) To assess viability of neutrophils in-vitro, peripheral blood from healthy donors was erythrocyte-lyzed and neutrophils or peripheral blood mononuclear cells (PBMCs) were isolated. Cultures in RPMI10%FCS were performed in 96 well microtiter plates (5×10^5cells/well) unless otherwise stated. The percentage of apoptotic neutrophils or PBMCs was assessed based on binding of fluorescent Annexin V-protein binding or measuring of CD11b or CD16 surface expression by FACS (fluorescent activated cell sorter) analysis.
(§2) Cells were incubated for 24 or 48 hours with MDPK67b at concentrations ranging from 6 μM to 60 μM, as indicated, or PBS as control. Apoptosis was assessed by Annexin V staining and FACS analysis. Indicated leukocyte populations were gated based on their appearance in a forward scatter/sideward scatter FACS dot plot (neutrophils) or by positive staining for CD3 (T cells).
Neutrophils were incubated for 18 hours with MDPK67b or MDOKG9 concentrations ranging from 60 μM (dilution 1) to […] as indicated. Apoptosis was assessed as outlined above.
Neutrophils were cultured with the indicated concentrations of MDPK67b. PBS without MDPK67b served as a control. Neutrophils were plated (100 μl/well) either at 5×10^6/ml (high density) or 3×10^5/ml (low density) and neutrophil apoptosis was assessed by AnnexinV staining and FACS analysis. Culturing of 5×10^6/ml neutrophils in serum free medium (X-Vivo 15) instead of RPMI10% FCS was assessed in parallel.
(§3) Neutrophils were cultured with the indicated concentrations of MDPK67b in presence or absence of the Src tyrosine kinase inhibitor PP2 (final concentration 10 μM). Apoptosis and relative frequencies of CD11b and CD16 high expressing neutrophils were measured by FACS analysis.
Neutrophils were cultured with the indicated concentrations of G-CSF and neutrophil Apoptosis (FIG. 6A) and down-regulation of CD 16 expression (FIG. 6B) were analyzed by FACS. FIG. 6C: Neutrophils were cultured with MDPK67b (0.6 μM) and titrated amounts of G-CSF (concentrations as indicated). Neutrophils cultured in medium and PBS (without MDPK67b) served as a control.
Cells were incubated during 18 hours with MDPK67b (6 μM) plus Etoposid (125 μg/ml), Etoposid alone or PBS. Apoptosis was assessed by Annexin V staining and FACS analysis. Relevant leukocyte populations were gated based on their appearance in a forward scatter or sideward scatter FACS dot plot.
Cells were incubated for 18 hours with MDPK67b (0.06 μM) alone or MDPK67b (0.06 μM) plus increasing concentrations of Etopsid (in μg/ml) as indicated or PBS. Apoptosis was assessed by Annexin V staining and FACS analysis was performed as mentioned above.
A general note: A flow cytometer gives signals particle by particle.

Assay [2] relates to neutrophils. The assay can be described thus: CD16 / CD11b surface expression of cultured neutrophils by FACS. It is filed as cell-based, human. The procedure: as §1
Neutrophils were cultured with the indicated concentrations of MDPK67b and percentage of neutrophils expressing high levels of CD16 or CD11b was assessed by FACS. Representative FACS plots are shown.
as §3

The target in assay [3] is hK3 (Homo sapiens, UniProt P07288). The assay can be described thus: Inhibition of kallikrein hK3 by chimeric serpin. It is filed as biochemical.
The target in assay [4] is hK2 (Homo sapiens, UniProt P20151). The assay can be described thus: Inhibition of kallikrein hK2 by chimeric serpin. The class given is biochemical. From the text:
These chimeric inhibitor proteins have been obtained by modifying the RSL of α1-antichymotrypsin (rACT), which is known to inhibit a large panel of human enzymes such as chymotrypsin, mast cell chymase , cathepsin G , prostatic kallikreins hK2 and PSA (hK3), in order to change the specificity of this serpin. Peptide sequences, selected as substrates for the enzyme hK2 by phage display technology as explained in International Patent Application PCT/IB2004/001040, have been used to replace the scissile bond and neighbor amino acid residues of the RSL. Recombinant inhibitors were produced in bacteria and purified by affinity chromatography.

The test system of assay [5] is T cells. The assay can be described thus: Annexin-V staining / FACS analysis of T cells (CD3 positive). The class given is cell-based, human. To be noted: 24 or 48 hours. As for the experimental part:
as §1, §2

In assay [6] the test system is monocytes or lymphocytes. As to the kind of experiment: Annexin-V staining / FACS analysis of monocytes or lymphocytes (PBMCs). It is filed as cell-based, human. The procedure: as §1, §2
Assay [7] has as its system neutrophils. As to the kind of experiment: Annexin-V staining / FACS analysis of neutrophil apoptosis in vitro. The class given is cell-based, human. To be noted: doses ranging from 60 μM down to 0.6 μM; 18, 24 or 48 hours; PBS control.
Setting [8] is: neutrophils cultured with MDPK67b plus kinase inhibitor (PP2 final concentration 10 μM).

hK3, sequence (P07288 25-261): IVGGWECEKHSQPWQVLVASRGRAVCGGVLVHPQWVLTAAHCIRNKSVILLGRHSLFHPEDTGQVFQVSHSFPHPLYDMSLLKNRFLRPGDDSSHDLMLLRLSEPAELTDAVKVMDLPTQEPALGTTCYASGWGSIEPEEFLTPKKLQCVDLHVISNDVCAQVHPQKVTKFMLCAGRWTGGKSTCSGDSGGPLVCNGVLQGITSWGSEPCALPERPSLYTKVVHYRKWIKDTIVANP
hK2, sequence (P20151 25-261): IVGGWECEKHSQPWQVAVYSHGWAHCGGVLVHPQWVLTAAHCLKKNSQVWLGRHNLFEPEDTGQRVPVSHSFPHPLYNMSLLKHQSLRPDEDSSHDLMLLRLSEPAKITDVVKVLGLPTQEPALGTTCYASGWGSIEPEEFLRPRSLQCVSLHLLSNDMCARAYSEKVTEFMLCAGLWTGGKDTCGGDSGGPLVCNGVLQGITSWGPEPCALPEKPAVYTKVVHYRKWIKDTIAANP

Regarding `COc1cc([C@@H]2c3cc4c(cc3[C@@H](O[C@@H]3O[C@@H]5CO[C@@H](C)O[C@H]5[C@H](O)[C@H]3O)[C@H]3COC(=O)[C@H]23)OCO4)cc(OC)c1O` [Etoposid, reference compound], the “block of the apoptosis reducing effect of MDPK67b” value in assay [1] (Etoposid up to 125 μg/ml, 18 hours) is given as “only partially block”.
With `CC(C)(C)n1nc(-c2ccc(Cl)cc2)c2c(N)ncnc21` [PP2, reference compound], the “reversal of the decreased apoptosis in the presence of MDPK67b by kinase inhibitor” value in assay [1] (setting [8]) is on record as “can be reversed”. For the same molecule, in assay [2] (setting [8]), the “reversal of the increased frequency of CD11b high expressing neutrophils in the presence of MDPK67b by kinase inhibitor” value is listed as “can be reversed”.

B1: MDCI: chimeric inhibitor: P3-P3′ of rACTWT RSL replaced by RSL of Protein C inhibitor; SEQ ID No 14 (protein)
chain: MRGSHHHHHHSRHPNSPLDEENLTQENQDRGTHVDLGLASANVDFAFSLYKQLVLKAPDKNVIFSPLSISTALAFLSLGAHNTTLTEILKGLKFNLTETSEAEIHQSFQHLLRTLNQSSDELQLSMGNAMFVKEQLSLLDRFTEDAKRLYGSEAFATDFQDSAAAKKLINDYVKNGTRGKITDLIKDLDSQTMMVLVNYIFFKAKWEMPFDPQDTHQSRFYLSKKKWVMVPMMSLHHLTIPYFRDEELSCTVVELKYTGNASALFILPDQDKMEEVEAMLLPETLKRWRDSLEFREIGELYLPKFSISRDYNLNDILLQLGIEEAFTSKADLSGITGARNLAVSQVVHKAVLDVFEEGTEASAATAVKITFRSALVETRTIVRFNRPFLMIIVPTDTQNIFFMSKVTNPKQA
With B1, the “inhibition of kallikrein hK3” value in assay [3] is listed as “able to inhibit”. Besides, the “inhibition of kallikrein hK2” value in assay [4] is reported as “able to inhibit”.

B2: MDPK67b: chimeric inhibitor protein specific for hK2, modified RSL of α1-antichymotrypsin; amino acid sequence SEQ ID NO 16 (protein)
chain: MHPNSPLDEENLTQENQDRGTHVDLGLASANVDFAFSLYKQLVLKAPDKNVIFSPLSISTALAFLSLGAHNTTLTEILKGLKFNLTETSEAEIHQSFQHLLRTLNQSSDELQLSMGNAMFVKEQLSLLDRFTEDAKRLYGSEAFATDFQDSAAAKKLINDYVKNGTRGKITDLIKDLDSQTMMVLVNYIFFKAKWEMPFDPQDTHQSRFYLSKKKWVMVPMMSLHHLTIPYFRDEELSCTVVELKYTGNASALFILPDQDKMEEVEAMLLPETLKRWRDSLEFREIGELYLPKFSISRDYNLNDILLQLGIEEAFTSKADLSGITGARNLAVSQVVHKAVLDVFEEGTEASAATAVKIKLRTTLVETRTIVRFNRPFLMIIVPTDTQNIFFMSKVTNPKQA
With B2, the “T-cell survival (Annexin V staining)” value in assay [5] is recorded as “No Significant Effect on T-cell Survival”. Moreover, in assay [1], the “protection of neutrophils from apoptosis compared to G-CSF” value is “Superior Effect”. Besides, the “apoptosis of neutrophils under various culture conditions” value in assay [1] (5×10^6/ml (high density) or 3×10^5/ml (low density), RPMI10% FCS or serum free medium (X-Vivo 15)) is “inhibits apoptosis of neutrophils in vitro independently of cell density and presence or absence of serum”. Also, the “cytostatic drug-induced apoptosis of neutrophils” value in assay [1] (18 hours, MDPK67b (6 μM or 0.06 μM) plus Etoposid) is recorded as “Reduces Cytostatic Drug-induced Apoptosis of Neutrophils”. For the same molecule, the “effect of MDPK67b on neutrophil apoptosis in presence of G-CSF” value in assay [1] (MDPK67b (0.6 μM) and titrated amounts of G-CSF) was “not affected by G-CSF”. Moreover, the “frequency of neutrophils that express CD16 and CD11b at high levels” value in assay [2] (indicated concentrations of MDPK67b) is “increases dose-dependently”. In addition, the “apoptosis of monocytes or lymphocytes” value in assay [6] was “did not inhibit apoptosis of monocytes or lymphocytes”. Further, the “apoptosis of neutrophils (Annexin V staining)” value in assay [7] is recorded as “inhibit apoptosis of neutrophils”.

B3: G-CSF (protein, UniProt P09919 31-207, looked up)
Granulocyte …: TPLGPASSLPQSFLLKCLEQVRKIQGDGAALQEKLVSECATYKLCHPEELVLLGHSLGIPWAPLSSCPSQALQLAGCLSQLHSGLFLYQGLLQALEGISPELGPTLDTLQLDVADFATTIWQQMEELGMAPALQPTQGAMPAFASAFQRRAGGVLVASHLQSFLEVSYRVLRHLAQP
notes: present agent used for the treatment of neutropenia
Take B3: the “effect on neutrophil apoptosis, alone” value in assay [1] (G-CSF alone, indicated concentrations) is listed as “only a mild protecting effect”.

(Values after patent US9642898B2, “Use of serine protease inhibitors in the treatment of neutropenia” (Med Discovery S.A., priority 2009, dated 2017).)
